Results reported in PMC4930482.

Legend:
Assay in all cases: coIP
HA-RNF26 = HA-RNF26 (UniProt Q9BY78); conditions: n = 3; parent: est. 100; read off a plot
[1] = biological target: RNF26, wild type (coIP of Figures 5A and 5B) (UniProt Q9BY78); conditions: HEK293T cells; n = 3; parent: est. 100; read off a plot
RFP-RNF26 = RFP-RNF26 (UniProt Q9BY78); conditions: n = 3; parent: est. 100; read off a plot

## GFP-TAX1BP1 (from UniProt Q86VP1) UBZ2*
HA-RNF26
  percent of parent: 39 % Co-IP

## TOLLIP, wild type (coIP of Figure 5B) (from UniProt Q9H0E2) CUE*
[1]
  percent of parent: 13 % Co-IP

## FLAG-EPS15 (from UniProt P42566) UIM*
RFP-RNF26
  percent of parent: 14 % Co-IP
